The values that follow come from patent US20260028422A1 (CONCEPT TO MEDICINE BIOTECH, published 2026).

Test [1] concerns the target T1, human MerTK expressed on cells (human, UniProt Q12866 21-999).
T1 construct: whole, on cells; also called CHO-K1-hMerTK; CHO-K1-MerTK
T1 sequence (looked up): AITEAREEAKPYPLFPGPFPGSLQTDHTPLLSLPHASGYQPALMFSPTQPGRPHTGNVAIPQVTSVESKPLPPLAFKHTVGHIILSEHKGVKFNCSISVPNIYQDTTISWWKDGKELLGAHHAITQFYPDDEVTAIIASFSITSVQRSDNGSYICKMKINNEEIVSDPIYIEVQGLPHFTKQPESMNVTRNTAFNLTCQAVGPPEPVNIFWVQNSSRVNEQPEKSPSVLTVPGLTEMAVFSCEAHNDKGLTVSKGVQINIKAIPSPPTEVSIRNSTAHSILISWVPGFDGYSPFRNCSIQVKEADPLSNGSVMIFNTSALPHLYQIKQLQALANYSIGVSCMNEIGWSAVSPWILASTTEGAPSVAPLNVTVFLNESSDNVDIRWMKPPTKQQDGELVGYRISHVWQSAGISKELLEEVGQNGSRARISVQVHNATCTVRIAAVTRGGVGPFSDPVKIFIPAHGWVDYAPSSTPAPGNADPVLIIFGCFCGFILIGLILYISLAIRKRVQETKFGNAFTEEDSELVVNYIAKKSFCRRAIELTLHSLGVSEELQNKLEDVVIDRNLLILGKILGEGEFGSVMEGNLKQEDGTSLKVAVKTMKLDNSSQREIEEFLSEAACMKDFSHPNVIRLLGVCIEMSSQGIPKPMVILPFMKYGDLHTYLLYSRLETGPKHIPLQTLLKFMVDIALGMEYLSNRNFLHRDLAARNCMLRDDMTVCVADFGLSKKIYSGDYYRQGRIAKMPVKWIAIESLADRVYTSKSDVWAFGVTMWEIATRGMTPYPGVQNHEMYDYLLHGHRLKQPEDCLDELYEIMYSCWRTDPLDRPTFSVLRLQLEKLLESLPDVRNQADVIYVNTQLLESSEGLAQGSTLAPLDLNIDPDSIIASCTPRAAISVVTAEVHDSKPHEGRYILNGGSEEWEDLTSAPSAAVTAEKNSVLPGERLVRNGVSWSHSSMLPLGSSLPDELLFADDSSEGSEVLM
In words: FACS on CHO-K1 cells overexpressing human MerTK, MFI (AF488).

In test [2] the target is T2, human MerTK-his protein (human, UniProt Q12866 21-505).
T2 construct: extracellular domain; also called hMerTK-His; human MerTK protein
T2 sequence (looked up): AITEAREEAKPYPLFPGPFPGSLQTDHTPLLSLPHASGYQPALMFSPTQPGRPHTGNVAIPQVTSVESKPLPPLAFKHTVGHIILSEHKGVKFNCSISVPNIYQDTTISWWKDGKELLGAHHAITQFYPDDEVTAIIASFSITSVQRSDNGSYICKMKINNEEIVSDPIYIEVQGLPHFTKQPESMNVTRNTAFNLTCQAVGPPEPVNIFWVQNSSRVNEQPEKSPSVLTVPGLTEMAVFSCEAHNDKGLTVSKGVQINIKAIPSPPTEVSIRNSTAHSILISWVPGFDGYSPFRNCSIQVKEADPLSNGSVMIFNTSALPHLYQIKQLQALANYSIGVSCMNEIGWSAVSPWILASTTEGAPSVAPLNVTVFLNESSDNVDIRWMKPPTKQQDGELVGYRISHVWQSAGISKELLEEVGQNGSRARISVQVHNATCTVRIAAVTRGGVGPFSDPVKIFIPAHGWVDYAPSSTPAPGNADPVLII
In words: ELISA, plate coated with human MerTK-his, anti-human IgG Fc-HRP, OD 450nm. Background: ELISA stands for enzyme-linked immunosorbent assay.

The target of test [3] is T2, human MerTK-his protein. Described as above. This is another data set of the same source.
In a further test the target is T3, cyno MerTK-his protein (cynomolgus, UniProt A0A2K5V1H9 27-505).
T3 construct: also called cyno MerTK protein; Cynomolgus
T3 sequence: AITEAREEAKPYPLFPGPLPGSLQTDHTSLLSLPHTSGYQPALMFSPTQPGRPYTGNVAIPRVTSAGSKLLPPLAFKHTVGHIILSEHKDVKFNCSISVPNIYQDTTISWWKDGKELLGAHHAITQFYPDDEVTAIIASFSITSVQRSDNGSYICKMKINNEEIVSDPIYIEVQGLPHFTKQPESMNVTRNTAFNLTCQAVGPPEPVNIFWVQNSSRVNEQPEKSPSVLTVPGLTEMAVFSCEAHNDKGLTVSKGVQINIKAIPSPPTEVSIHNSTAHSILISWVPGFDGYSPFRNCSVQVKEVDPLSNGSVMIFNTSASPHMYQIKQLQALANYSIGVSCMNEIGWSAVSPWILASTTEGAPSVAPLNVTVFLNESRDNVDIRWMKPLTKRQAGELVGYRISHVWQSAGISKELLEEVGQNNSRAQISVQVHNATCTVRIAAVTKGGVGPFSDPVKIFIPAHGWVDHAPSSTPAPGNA
In words: ELISA, plate coated with cyno MerTK-his, anti-human IgG Fc-HRP, OD 450nm.

Test [4] deals with T1, human MerTK expressed on cells. Briefly: FACS on CHO-K1 cells overexpressing human MerTK, MFI (AF488). This is another data set of the same source.
For test [5] the target is unchanged. Briefly: FACS on CHO-K1 cells overexpressing human MerTK, MFI (PE). The procedure:
To evaluate the binding property to the antigen expressed on the cells, the chimeric monoclonal antibodies were analyzed for their binding to human MerTK overexpressed on CHO-K1 cells by FACS. Briefly, human MerTK overexpressing CHO-K1 (CHO-K1-MerTK) cells were firstly incubated with 5-fold serially diluted mAbs starting at 20 nM at 4° C. for 1 hour. After washing with FACS buffer, the PE conjugated anti-human IgG-Fc secondary antibody was added to each well and incubated at 4° C., for 30 mins. The mean fluorescence intensity (MFI) of PE were evaluated by QuantAnalyzer 16.
To evaluate the binding property to the antigen expressed on the cells, the humanized antibodies were analyzed by FACS as described before.

Read-outs that look alike come from different tables or passages of the source.

B1: 265F11B5 chimeric monoclonal antibody (antibody, V domains shown)
VH: QVQLQQSGPELVKPGASVRLSCKASGYTFTTYDINWVKQRPGLGLEWIGWIYPRDGYTKYNEKFKGRATLAVDTSSSTAYMELHSLTSEDSAVYFCTRGYYDNLYYFDYWGQGTTLTVSS
VL: EIVLTQSPTTVAASPGEKITITCSASSIISSNYFHWYQQRPGFSPKLLIYRTSNLASGVPARFSGSGSGTSYSLTIGTMEAEDVATYYCQQGRSVPLTFGAGTKLELK
For B1, the EC50 (commonly the concentration needed to bring the measured effect to its halfway point) in test [1] came out at 0.18 nM. This counts as sub-nanomolar.

B2: h13B4.v16 benchmark antibody (antibody, V domains shown)
VH: EVQLVESGEGLVQPGGSLRLSCAASGFSLSSYAMGWVRQAPGKGLEYVGIINSYGNTYYANWAKGRFTISRDNSKNTVYLQMGSLRAEDMAVYYCARDPGVSSNLWGRGTLVTVSS
VL: DIQMTQSPSTLSASVGDRVTITCQASQNIYSGLAWYQQKPGKAPKLLIYGASKLASGVPSRFSGSGSGTEFTLTISSLQPDDFATYYCQATYYSSNSVAFGGGTKVEIK
With B2, the results for the concentration giving a half-maximal response (EC50) with human MerTK-his protein [2], in the test with human MerTK-his protein [3] and in the test with cyno MerTK-his protein were 0.037 nM, 0.027 nM and 0.044 nM, respectively.

B3: 254B4D9 chimeric monoclonal antibody (antibody, V domains shown)
VH: QIQLVQSGPELKKPGETVKISCKASGYTFTAYGMSWVKQAPGKGLQWMGWINTYSGVPTYTDDFKGRFAFSLEASASTAFLQINNLKNEDTSTYFCARRAAVVAKYWYFDVWGTGTTVTVSS
VL: DIQMTQSPSSLFASLGGKVIITCKSSQDINKRISWYQHKPGKGPRLLIHSTSSLQPGIPLRFSGSGSGRDYSFSISNLEPEDIATYFCLQYDNLLTFGAGTKLELK
Turning to B3, the concentration giving a half-maximal response (EC50) in test [4] was found to be 1 nM. In other words, the single-digit nanomolar range.

B4: 10F7D9 chimeric monoclonal antibody (antibody, V domains shown)
VH: QIQLVQSGPELKKPGETVKISCKASGYTFTNYGMNWVKQAPGKGLKWMGWINTYTGEPTYADDFKGRFAFSLETSASTAYLQINNLKNEDLATYFCATYGHYAWFAYWGQGTLVTVSA
VL: QIVLSQSPAILSASPGEKVTMTCRASSSVSYMHWYQQKSGSSPKPWIYATSNLASGVPARFSGSGSGTSYSLTISRVEAEDAATYFCQQWGTKPLTFGAGTKLELK
Molecule B4 returned a concentration giving a half-maximal response (EC50) in test [5] of 0.23 nM.
